Laboratory results taken from the DeepSol protein solubility set.

Test: soluble on expression in E. coli; label from the status in PepcDB or PDB records

Soluble on expression in E. coli, not soluble:
MNDYAAMPSEDREVGALSLPPHSMEAEQSVLGGLMLENPAWDRIADVVSGEDFYRHEHRLIFRSIAKLINESRPADVITVQEDLQRNEELEAAGGFEYLITLAQNTPSAANIRRYAEIVRERSIMRQLAEVGTEIARSAYNPQGRDAGQLLDEAENKVFQIAESTAKSKQGFLEMPDLLKEVVQRIDMLYSRDNPDEVTGVPTGFIDLDKKTSGLQPGDLIIVAGRPSMGKTAFSINIAEHVAVEGRLPVAVFSMEMGGAQLVMRMLGSVGRLDQSVLKTGRLEDEHWGRLNEAVVKLSDAPVYIDETPGLTALELRARARRLARQFNNKLGLIVIDYLQLMAGSGRSDNRASELGEISRSLKALAKELQVPIIALSQLSRTVESRTDKRPMMSDLRESGAIEQDADLIMFMYRDEYYNQDSPMKGLAECIIGKHRNGPVGKIFLTWTGQFTKFDNAAYIPEEAKIED
GEGSPVGIAILGYGTVGSQVLRLLTENHNDFQHRAGGPLEIKGVAASSVEKHRGSLADQLGLLTDDARSLIARDDVDIVVEVIGGIDYPRELILEALHSGKSVVTANKALVAAHSEELAAAADEAGVDLYFEAAVAAAIPVLGPLRRSLAGDQIQSVAGIVNGTTNFILDAMDSTGASYDDMLAEATRLGYAEADPTADVEGHDAASKAAILASLAFHTRVTYADVYCEGISKITADDINAAKEAGFTIKLLAICERLNVDGVEKVSARVHPTLVPRNHPLASVDKSFNAIFVEAEAAGRLMFYGNGAGGNPTASAVLGDIVGAARNKVFGGRAPGESTYADLPIAPFGEVPTRFHIDMEVEDRVGVLADLAKTFSNHGISLRTVRQAEKDGHARLIVVTHTAKESELEATVEQIKNSDSVKKINSVIRLAG
MVATLIIIRGNSASGKSTIAKQLQAELGENTLLLSQDYLRREMLGTKDGENTTTIPLLINLLNYGYHNCSYIILEGILRSDWYTPVWKHILKHNPNNTYAYYYDLSFQETVKRHSTR
MSLAGHQPILTVSEVTRHLKRTIEDDPLLQDVWMRGEISNFKHHSRGHMYFTLKDEHAKMSAVMFAGNNRFLNFKPENGMKVIVRGEVNVYEPFGQYQLYALEMQPDGIGNLYLAYEQLKERLEQEGLFKEENKKPLPPVARQIAIVTSPTGAAIRDIASTIKRRFPVAQLTLLPVLVQGEEAPHSIAKAIRQANEVGGFDLLIVGRGGGSIEELWAFNEELVARAIYQSVIPIISAVGHETDYTIADFVADVRAATPTGAAELAVPDLKELISRVNQYTERLKRAQHELLKRQKEHLQRLQKSYAFRYPAQLVKQKELELDQQLERLTKHQRRMVSDAKDRLSQLEYRLKRIHPEGRLRQAEQARVKLEVLLKKEFQQMMERKEQQFQQAISSLNLLSPLRVMERGYALPYKAKTQELIKSVKQVRMNDRLHLRVTDGQLICDVKEIESESGGEGYDQKEGHHHHHH
MSLSELIKRLITAMTLCLTALLVHAQEWTKEDSLRLRKLLDSDQELNLNQDAVRQIDFGSAVGTPRMSVEKKWMLPDESLPEALPKPKVVLSLMPYKANTPYNWDPVFQKKIRMDKNTWRGDPHYEMRHQRSYSNWAHNPMAGGVRKSLEEIRASGVRFRQLSERANGMMVNSVVMDSPIPLFGGSGVYINGGTIGGLDLMAVFTKNFWDKKGKERRERTLEVLRTYGDSTTVLINRPIEQIAREGHHHHHH
MSLDPVGPISDEETSYYVRLQYNGEILPLFTKIEGIEYKKATDIHNPLKASFIAGGGAFGYKMDDIRVDVEGLYSQLNKNDVTGAAFNPDTVADSLTAISGLVNVYYDIAIEDMPITPYVGVGVGAAYISTPLKDAVNDQKSKFGFAGQVKAGVSYDVTPEVKLYAGARYFGSFGAHFDKDTAAASKDKGELKVLYSTVGAEAGVAFNFEGHHHHHH
MGSDKIHHHHHHMGIYMRDDILDIITLTTDFGTNEGYVGAMKGRILNILKKYNKDAKIIDISHEIKPFNIYHGAYVLLTAIPYFPPSVHVAVIDPTVGSERKSIVIETKSGYYLVGPDNGLFTYVAEKLGIKRIIKIDEERYKPSSTFHGRDVYAVVGAEILINNGYDGEELDEMVKIDETKKRVIHIDRFGNIITNIKKDEVTFKYYDTIMIKIRHKNGIEKIIKCKFVKSYFEEKNNFICLINSEGFLEISKFMDNASKLLNVDYLDEIEIIY
MGSDKIHHHHHHVGRIEGQACPATGIWLLPARRQTAYRIQKTSYSALSAPARMDGTDRLAWGRYDTVGTTLYLAENAECAFSETLSPFKRAIGTVDPLRKDADALGMTLEDFYEEVAYQWQEKSFMNSGTLPRIWRTERQLHIVELPFPGWWIDVEHPETMAAVEAAIPDTLKDLGITHVDTSLLRSNRRDVTTAIADHLRDLVLFDGSYAPGIKFGSRHGAYLNWAVWLRDHDLQLSGDDGLVHLGESPISFNDPDLEAASRRFRLKVF
MGSDKIHHHHHHMSQQQPPAPVEGYQDMVHAAESQFDREQFKQLLMDMVNIPSPTGEEAELARYMADHMTANGLQGQTQYLDDQQANAIGKLPSRSKQGPELLLYASFDTHLGGSDEEERWAGQPLPSMLRPQARLEGDEISGLGAENPKAYAACVTTAATCIAKAGLELPGELTVGLGAGGMTALSRPGFSRRNIGHGAGVMFMLQRGYRPDYCVMCKPVYAVAWEEVGICNFTIRVKGAMGYVGVRHMMPQDQNPFPQVAKVIEALEAWFPTYTARHTSGLVAPQGGISAIEGGWPHKPIITTADVVLHVDIRPSPRTDPVQVKRELQAMLTELSQQHPDVVTELEATLAIPGATTSPDNWIIQSMIRAWEDVEQTPHEPFLNMSGYTDLSVIRQWGVPAARLGVPFRHQEPDPEDSLPMNRVHLDDCYRLIQVLIRSAIDTCSRPIEITQQYQ
MSLSTYTTGELAKHVGVSVRTIQYYDQRGLLTPMTTAGGRREYTAQDIERLQLILVLKSMGLKLAAIKDILNSPNATDVLQLLLTEQVQRLRQDQAATTTQLKTVIAVQKALAVSGPFPLESIHDMDQLMTNQQREGHHHHHH
PQLDEARTNGLMKTLFPHQVLSTIQASRILKTYNGVVIADSTGLGKTRVAINLAVMAINDGRNPLLIAPKSALETTWKDEMDKTHVHIDSKRSEYLSQHPDEAIKEIQGKDFIIVDEAHYFKSPGSNRYSVLRDLMAAGQKQIVLLTATP
MTDLNRTALPSRTDGTVEKTDTLVVGAGQAGVAMSEHLSRLGVPHLVLERNRIAEAWRSGRWDSLVANGPAWHDRFPGMEFDIDPDGFPGKDQVAAYFEAYAKRFDAPIRTGVEVRKVVRNVGRPGFTVDTSAGTIEANRVVAATGPFQRPVIPPIAPRDERIRQIHSAHYYNPQQLPEGAVLVVGAGSSGVQIADELQRAGRQVYLSVGAHDRPPRSYRNRDFCWWLGVLGEWDAEVAKPGREHVTIAVSGARGGHTVDFRALAHQGVTLVGLTESFVDGVATFRPDLAENLARGDENYLALLDAADAYIARNGLDLPEEPEARRRLPDPQCVTDPILELDLAEAGVGSIIWATGYAVDFGWLQVDAFDRDGKPRHQRGVSSEPGVYFIGLPWLSRRGSSFIWGVWHDARHVADHIAIQRKYLAYRDAAQRQEQDRASQAPQTSLQEVS
MTQDELYMKEAIKEAKKAEEKGEVPIGAVLVINGEIIARAHNLRETEQRSIAHAEMLVIDEACKALGTWRLEGATLYVTLEPCPMCAGAVVLSRVEKVVFGAFDPKGGCSGTLMNLLQEERFNHQAEVVSGVLEEECGGMLSAFFRELRKKKKAARKNLSEMGHHHHHHSH

Soluble on expression in E. coli, soluble:
MSLNDLLVGLLLPEKENTRYEQFDYPFFKKKVGELTRDEGIVKYANAEASATKQADQMQQMIEDKVDVIVLDAVDAHAIADGVQKAKDAGIPVIAYDRLAEGPIDAYISFDNELVGEVQGRSLIEALGGDPESSAKIVMMNGSSTDPNAKQFKAGALSELNGKVTIAQSFDTKDWKPENAEANMTEAIEKIGKKKIAGVYSANDGMAGGVIKALEDAGVTDLPPITGQDAELAAVQRIVTGEQYMSVYKSYPQEAENAAEMAVARVQGRDIQFDALARDKVDSPTHKGIPAQLVPVVALTKANIEETVVAEGHHHHHH
MSLTTALAPGAADALLFDLGRVVIDYDLRRTLKAWAVELGSDPHALMAKLAQNDTFHRYETGHVTDAEFFAAVRTALGLTLTDAQLREGWNAIFIGEMPGIAPLLDRAAKQLPLYALSNTNDSHIAHFSEHYAELLVHFRELFLSSRIGMRKPNGETYDFVVKAIGIAPQRIVFFDDLAENVEAARERGLYAVQVHSSDDVARTLDQLGLEGHHHHHH
MGHHHHHHSHMTLEEVRGQDTVPESTARMQGAGKALHELLLSAQRQGCLTAGVYESAKVLNVDPDNVTFCVLAAGEEDEGDIALQIHFTLIQAFCCENDIDIVRVGDVQRLAAIVGAGEEAGAPGDLHCILISNPNEDAWKDPALEKLSLFCEESRSVNDWVPSITLPE
MNMAHTTTSMEIFGSPEQVWQLIGGFNSLPDWLPYIPSSKLTEGGRVRHLANPDGDTIIERLEVFNDKERYYTYSIMNAPFPVTNYLSTIQVKEGTESNTSLVEWSGTFTPVEVSDEEAINLFHGIYSDGLKALQQAFLDLEHHHHHH
GHHHHHHHHHHGLVPRGSHMYFQKARLIHAELPLLAPFKTSYGELKSKDFYIIELINEEGIHGYGELEAFPLPDYTEETLSSAILIIKEQLLPLLAQRKIRKPEEIQELFSWIQGNEMAKAAVELAVWDAFAKMEKRSLAKMIGATKESIKVGVSIGLQQNVETLLQLVNQYVDQGYERVKLKIAPNKDIQFVEAVRKSFPKLSLMADANSAYNREDFLLLKELDQYDLEMIEQPFGTKDFVDHAWLQKQLKTRICLDENIRSVKDVEQAHSIGSCRAINLKLARVGGMSSALKIAEYCALNEILVWCGGMLEAGVGRAHNIALAARNEFVFPGDISASNRFFAEDIVTPAFELNQGRLKVPTNEGIGVTLDLKVLKKYTKSTEEILLNKGWS
MSLHGEKAPFPLTLIHINDLHARFDETNQKSSTCTNSKECIAGIARVYHTIKQLKSEYKTKNPLYLNAGDNFQGTLWYNLLRWNVTAYFIKELPPDAMTLGNHEFDHSPKGLAPYLAELEKMKIPTVVANLEKNGEPALKDSKIARSIVLKVGNRKVGVIGALYDKTHLVAQTGMVTLTNSIEAVRKEAQELKKKNVNIIVVLSHCGLDGDKQLAEEAGDLIDVIVGAHSHSLLLNKDAKVPYDTKYDTIEGDYPLVVKKSNNHTVLITQARSFGKYVGRLTVNFDCEGEVQSWEGYPIYMNNSVKEGHHHHHH
GSMNPEEKTVMLYNEYAEQAVLGSILTEPELIKECPLTPEHFSPGKHFNIYFTMQDLDRKGQSVDFTSIAARVGEKLPQLGGFGYLTELAASVASTTTFKQHCQTVSEYFQKRKAISIAQQIIENVNESDDGPVKPIQEAVSELMEIEASGTDDDDGSIDEALVTVYEEIESADGNITGVPSGFTELDRMTYGYKRRNFVLIAARPSMGKTAFALKQAKNMSDNDDVVNLHSLEMGKKENIKRLIVTAGSINAQKIKAARRDFASEDWGKLSMAIGEISNSNINIFDKAGQSVNYIWSKTRQTKRKNPGKRVIVMIDYLQLLEPAKANDSRTNQISQISRDLKKMARELDVVVIALSQLSRQVEQRQDKRPMLSDLRESGQLEQDADIIEFLYRDDYYDKESESKNIVEVIIAKHRDGPVGTVSLAFIKEYGNFVNLERRFDDR
AHHHHHHGSMLKEVHELLNRIWGDIFELREELKEELKGFTVEEVSEVFNAYLYIDGKWEEMKYPHPAFAVKPGGEVGATPQGFYFVFAFPKEELSKEFIEDVIRAFEKLFIYGAENFLEDFYNFEHPISGDEVWDRIVNSDEEMINFEVDLGFDKEEVKREIKRFIELARRYNLL
